Reference: the nanobody polyreactivity screen of Harvey et al. (2022)

Assay: yeast display, Sf9 membrane polyspecificity reagent, FACS + sequencing; frameworks hold sequencing errors
Summary of the method: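 In a synthetic yeast display library (Saccharomyces cerevisiae BJ5465), nanobody expression was induced with galactose for 36–48 hours. FACS gates were set low and high (top ~1%) using anti-HA fluorescence for expression and streptavidin fluorescence for binding of the Sf9 membrane reagent. Each polyreactivity label is drawn from the gate of origin.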

| Sequence | polyreactivity (PSR sort gate) |
| --- | --- |
| QVQLVESGGGLVQAGGSLRLSCAASGSIFVPYAMGWYRQAPGKERELVAAISRRGGRTNYADSVKGRFTISRDNAKNTVYLQMNSLKPEDTAVYYCAKYPIYYGLTRYGYWGHGTQVTVSS | high polyreactivity |
| QVQLVESGGGLVQAGGSLRLSCAASGSIFVPYAMGWYRQAPGKERELVAAISSRGGRTYYADSVKGRFTISRDNAKNTVYLQMNSLKPEDNAVYYCNKTAGSHIPRLEYWGQGTQVTVSS | low polyreactivity |
| QVQLVESGGGLVQAGGSLRLSCAASGSIFVPYAMGWYRQAPGKERELVAAITYSDGSTYYADSVKGRFTISRDNEKNTVYLQMNSLKPEDTAVYYCATYPQYYFRYDYWGQGTQVTVSS | high polyreactivity |
| QVQLVESGGGLVQAGGSLRLSCAASGSIFVPYTMGWYRQAPGKERELVAAINSSDDSTFYADSVKGRFTISRDNAKNTVYLKMYSLKPEDTAVYYCNATGYARWYTGDYWGQGTQVTVSS | low polyreactivity |
| QVQLVESGGGLVQAGGSLRLSCAASGSIFVQNAMGWYRQAPGKETELVAVINSGDSTNYADSVKGRFTISRDNAKNTVYLQMNSLKPEDTEVYYCAVDDVSYYYLRAYNYELSWYGSGLDYWGQGTQVTVSS | low polyreactivity |
| QVQLVESGGGLVQAGGSLRLSCAASGSIFVQYAMGWYRQAPGKERELVAGITISGGRTYYADSVKGRFTISRDNAKNTVYLLMNSLKPEDTAVYYSNADVTRASSRYNSWGHGTQVTVSS | low polyreactivity |
| QVQLVESGGGLVQAGGSLRLSCAASGSIFVQYAMGWYRQAPGKERELVAGITISGGRTYYADSVKGRFTISRDNAKNTVYLQMNSLKPEDTAVYYSNADVTRASSRYNSWGQGTQVTVSS | low polyreactivity |
| QVQLVESGGGLVQAGGSLRLSCAASGSIFVQYAMGWYRQAPGNERELVAAISNRGGSTYYADSVKGRFTISRDNAKNTVYLQMNSLKPEDTAVYYCAARKYWGYGTRYYYWGQGTQVTVSS | high polyreactivity |
| QVQLVESGGGLVQAGGSLRLSCAASGSIFVRYAMGWYRQAPGKEREFVAARTGNTDYADSVKGRFTISRDNAKNTVYLQMNSLKPEDTAVYYCARRPRSGTVSTPYYSLDYWGQGTQVTVSS | low polyreactivity |
| QVQLVESGGGLVQAGGSLRLSCAASGSIFVSNAMGWYRQAPGKERELVAAITARDVSTYYADSVKGRFTISRDNAKNTVYLQMNSLKPEDTAVYYCAGNSSTYPSDDSYDYWGQGTQVTVSS | low polyreactivity |
| QVQLVESGGGLVQAGGSLRLSCAASGSIFVSYAMGWYRQAPGKERELVAAITWSGGSTYYADSVKGRFTISRDNAKNTVYLQMKSLKPEDTAVYYCAADEPYPTAYEYWGQGTQVTVSS | low polyreactivity |
| QVQLVESGGGLVQAGGSLRLSCAASGSIFVTNAMGWYRPAPGKERELVAAIRWSGDSTYYADSVKGRFTISRDNAKNTVFLQMNSLKPEDTAVYYCAAESFRYIRLNYKYGDYYWGQGTQVTVSS | high polyreactivity |
| QVQLVESGGGLVQAGGSLRLSCAASGSIFVTNAMGWYRQEPGKERELVAAISVSGGSTFYADSVKGRFTISRDNAKNTVYLQMNSLKPEDTAVYYCNTVRSPPGHDYWGQGTQVTVSS | low polyreactivity |
| QVQLVESGGGLVQAGGSLRLSCAASGSIFVTNGMGWYRQAPGKERELVAVISWGGGNTYYADSVKGRFTISRDNAKNTVYLQMNSLKPEDTAVYYCAVDIWGGEGYDSWGQGTQVTVSS | low polyreactivity |
| QVQLVESGGGLVQAGGSLRLSCAASGSIFVTNTMGWYRQAPGKERELVAAITYSGGSTYYADSVKGRFTISRDNAKNNVYLQMNSLKPEDTAVYYCAARRARYHVEYYYWGQGTQVTVSS | high polyreactivity |
| QVQLVESGGGLVQAGGSLRLSCAASGSIFVTYAMGWYRQAPGKERELVARITSGGSTYYADSVKGRFTISRDNAKNTVYLQMNRQKPEDTAVYYCAARRWLRYDLDYWGQGTQVTVSS | low polyreactivity |

| Sequence | polyreactivity (PSR sort gate) |
| --- | --- |
| QVQLVESGGGLVQAGGSLRLSCAASGSIFVVNAMGWYRPAPGKERELVAAISDSGDRTYYADSVKGRFTISRDNAKNTVYLLMNSLKPEDTAVYYCNTRYSPGYQGTEVDYWGQGTQVTVSS | low polyreactivity |
| QVQLVESGGGLVQAGGSLRLSCAASGSIFVVNAMGWYRQAPGKERELVAAISDSGDRTYYADSVKGRFTISRDNAKNTVYLQMNSLKPEDTAVYYCAADSIQTTAIYDYWGQGTQVTVSS | low polyreactivity |
| QVQLVESGGGLVQAGGSLRLSCAASGSIFVVNARGWYRQAPGKERELVAAITKNGGRTYYADSVKGRFTISRDNAKNTVYLQMNSLKPEDTAVYYCNTVKGHGGYYGYDYWGQGTQVSVSS | high polyreactivity |
| QVQLVESGGGLVQAGGSLRLSCAASGSIFVWNDMGWYRQAPGKERELVASIRSGVSTYYADSVKGRFTISRDNAKNTVYLQMNSLKPEDTAVYYCAKKGPIHYIYDSWGQGTQVTVSS | low polyreactivity |
| QVQLVESGGGLVQAGGSLRLSCAASGSIFVYNAKGWYRQAPGKERELVAAISSSGSSTYYADSVKGRFTISRDNAKNTFYLQMNSLKPEDTAVYYCAADPARYGYWNSYDYWGQGTQVTVSS | high polyreactivity |
| QVQLVESGGGLVQAGGSLRLSCAASGSIFVYNAMGWYRQAPGKEREFVAGITFIGGSTYYADSVKGRFTISRDNAKNTVYLKMNSLKPEDTAVYYCNADVAPGIFYGYDSWGQGSQVTVSS | low polyreactivity |
| QVQLVESGGGLVQAGGSLRLSCAASGSIFVYNAMGWYRQAPGKERELVAAIDTVGSTNYADSVKGRFTISRDNAKNTVYLQMNSLKPEDTAVYYCAVVTPYWSFYEQVIPSNYWGQGTQVTVSS | low polyreactivity |
| QVQLVESGGGLVQAGGSLRLSCAASGSIFVYNDMGWYRQAPGKERELVAGIDWSGDRTYADSVKGRFTISRDNAKNTVYLQLNSLKPEDTAVYYCNADDWRWDEIIPYAVDYWGQGTQVTVSS | low polyreactivity |
| QVQLVESGGGLVQAGGSLRLSCAASGSIFVYNDMGWYRQAPGKERELVAGIDWSGDRTYADSVKGRFTISRDNAKNTVYLQMNSLKPEDTAVYYCNADEWRWDEIIPYAVDYWGQGTQVTVSS | low polyreactivity |
| QVQLVESGGGLVQAGGSLRLSCAASGSIFVYYAMGWYRQAPGKERELVASISRGGTSTYYADSVKGRFTISRDNAKNTVYLQMNSLKPEDTAVYYCAAQPYRTGTYDYWGQGTQVTVSS | low polyreactivity |
| QVQLVESGGGLVQAGGSLRLSCAASGSIFVYYAMGWYRQAPGNERELVAAINNGGSTTYADSVKGRFTISRDNAKNTVYLQMNSLKPEDTAVYYCAADLEPRTNAPGLPTPDGYYWGQGTQVTVSS | low polyreactivity |
| QVQLVESGGGLVQAGGSLRLSCAASGSIFVYYDMGWYRQAPGKERELVAAISTTCGRTYYADSVKGRFTISRDNAKNTVYLQMNSLKPEATAVYYCAARYTIPYKRYDYWGQGPQVTVSS | high polyreactivity |
| QVQLVESGGGLVQAGGSLRLSCAASGSIFWDYAMGWYRQAPGKERELVAAISGSGTSTYYADSVKGRFTISRDNAKNTVYLQMNSLKPEDTAVYYCAARIWTGRGRKLGNGYDYWGQGTQVTVSS | low polyreactivity |
| QVQLVESGGGLVQAGGSLRLSCAASGSIFWDYAMGWYRQAPGKERELVAAISSNGGNTYYADSVKGRFTISRDNAKNTVYLQMNSLKPEDTAVYYCAARAKRRHGYWGQGTQVTVSS | high polyreactivity |
| QVQLVESGGGLVQAGGSLRLSCAASGSIFWGYAMGWYRQAPGKERELVATITYGGDSTYYADSVKGRFTISRDNAKNTVYLQMNSLKPEDTAVYYCNVGVEPYDYDYWGQGTQVTVSS | low polyreactivity |
